Measurements reported in patent publication US20200048693.

Test system: dsDNase (shrimp double strand-specific DNase)
Assay: cleavage_in_vitro
Conditions: DNA strand of hybrid cleaved, RNA strand almost not; First-Strand buffer, 37 C

CGCCATCGGAGGTTC / GAACCUCCGAUGGCG [RNA-DNA hybrid dual probe]
relative cleavage activity (fraction of dsDNA activity): 0.5
